Five molecules from US20230054202A1 (ZYDUS LIFESCIENCES, published 2023) can be followed below.

Experiment [1] concerns the target T1, native human purified properdin (Quidel; Cat No: A412) (human, UniProt P27918 28-469).
T1 construct: mature; Native purified commercial protein; In the haemolysis assays the properdin is the one present in normal human serum; also called human properdin; factor P
Kind of experiment: SPR (ProteOn XPR36), human properdin amine-coupled on GLC chip, mAb injected, 25 C, PBS pH 7.4. Here is the method: The kinetic rate constants for the binding of anti properdin candidates to native human purified properdin (Quidel; Cat No: A412) were determined by Surface plasmon resonance-based measurement using the ProteOn XPR36 (Bio-Rad). All binding measurements were performed in PBS (pH 7.4, 0.005% Surfactant P20) at 25° C. To measure the binding rate constants of properdin to the mAbs, human properdin was immobilized onto a GLC sensor chip using amine coupling chemistry. […] The data, in the form of sensograms were analysed using data-fitting programs integrated in the ProteOn system. Binding affinities in terms of KD value are provided for tested antibodies in table 7.

In experiment [2] the target is T2, recombinant human neonatal Fc receptor (rhFcRn), Sino Biologics (human, UniProt P55899 24-297; P61769 21-119).
T2 construct: Bought protein
The experiment can be described thus: SPR (ProteOn XPR36), rhFcRn immobilized on GLC chip, antibody injected, PBS pH 6.0, 25 C. The method, then:
The kinetic constants for the binding of antibodies to recombinant human neonatal Fc receptor (hFcRn) were determined by Surface plasmon resonance-based measurement using the ProteOn XPR36 (Bio-Rad). Recombinant rhFcRn receptor (Sino Biologics) was immobilized on a GLC chip following manufacturer's instruction. […] Reactions were carried in PBS (pH 6.0, 0.005% Surfactant P20) at 25° C. After each sample run, the chip surface was regenerated using PBS, pH 7.4. The data, in the form of sensograms, was analysed using the data-fitting programs in the ProteOn system.

In experiment [3] the target is T1, native human purified properdin …. Kind of experiment: SPR, purified hybridoma antibody on human properdin.

T2 sequence (P55899 24-297 limits assumed, chain 1 of 2): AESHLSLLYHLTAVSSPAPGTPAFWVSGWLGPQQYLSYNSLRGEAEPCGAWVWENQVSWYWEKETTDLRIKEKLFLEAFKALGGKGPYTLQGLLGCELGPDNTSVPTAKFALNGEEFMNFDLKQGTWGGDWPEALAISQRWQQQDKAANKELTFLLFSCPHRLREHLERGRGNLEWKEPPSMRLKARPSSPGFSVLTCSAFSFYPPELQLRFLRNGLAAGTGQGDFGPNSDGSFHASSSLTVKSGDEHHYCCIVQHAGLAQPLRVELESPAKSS
T2 sequence (P61769 21-119 limits assumed, chain 2 of 2): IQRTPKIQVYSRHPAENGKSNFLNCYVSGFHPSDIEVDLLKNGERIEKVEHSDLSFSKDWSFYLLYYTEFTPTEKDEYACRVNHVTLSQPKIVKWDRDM
T1 sequence (P27918 28-469): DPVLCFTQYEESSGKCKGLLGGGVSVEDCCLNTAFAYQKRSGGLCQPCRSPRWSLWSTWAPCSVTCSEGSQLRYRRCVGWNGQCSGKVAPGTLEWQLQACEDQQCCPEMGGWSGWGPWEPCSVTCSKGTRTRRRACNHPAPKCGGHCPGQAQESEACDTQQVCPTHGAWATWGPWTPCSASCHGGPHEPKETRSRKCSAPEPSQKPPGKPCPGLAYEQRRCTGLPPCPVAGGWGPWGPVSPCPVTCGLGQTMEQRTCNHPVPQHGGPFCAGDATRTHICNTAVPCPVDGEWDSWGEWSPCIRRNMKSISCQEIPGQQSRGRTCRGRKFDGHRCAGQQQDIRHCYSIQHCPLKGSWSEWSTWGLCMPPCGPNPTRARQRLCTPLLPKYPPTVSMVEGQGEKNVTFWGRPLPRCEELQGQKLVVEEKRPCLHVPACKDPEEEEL

B1: P14 (humanized version of 124F9) (antibody, IgG4, V domains shown)
VH: QVQLQESGPGLVKPSQTLSLTCTVSGYSITSGYYWNWIRQHPGKGLEWIGYISYDGGNKYNPSLKSRVTISRDTSKNQFSLKLSSVTAADTAVYYCARDLDGYESMDYWGQGTSVTVSS
VL: DIVMTQSPLSLSVTPGQPASISCKSSQSLLDINGKTYLNWYLQKPGQSPQLLIYLVSKLDSGVPDRFSGSGSGTDFTLKISRVEAEDVGVYYCWQGTHFPYTFGQGTKVEIKR
notes: Full-length humanized IgG4 made in CHO-S; also called pZRCIII Hyg P14LC-P14HC
On to B1, for which, in experiment [1], binding was put at a Kd of 2.81 nM; the koff – broadly, the rate constant with which the complex falls apart – stood at 0.00151 s⁻¹; the association rate constant (kon) (commonly the second-order rate constant of association) worked out at 540000 M⁻¹ s⁻¹.

B2: P11 (humanized version of E12) (antibody, IgG4, V domains shown)
VH: QVQLQQSGPELVRPGVSVKISCKGSGYTFTDYALHWVKQSHAESLEWIGVISTYYGDASYNQKFKDKATMTVDISSSTAYLELARLTSEDSAIYYCARDGYLDYWGQGTLVTVSS
VL: QSVLTQPPSVSAAPGQKVTISCSGSSSNIGNNYVSWYVQLPGTAPKLLIYDNNKRFSGVPDRFSGSKSGTSATLGITGLQTGDEADYYCGAWDGSLREAVFGGGTKVTVLR
notes: Full-length humanized IgG4 made in CHO-S; also called pZRCIII Hyg E12LC-E12HC
Turning to B2, in experiment [1], binding was characterised by a dissociation constant (Kd) of 2.07 nM, the koff turned out to be 0.000867 s⁻¹ and the kon is 420000 M⁻¹ s⁻¹.

B3: P15 (GLS) (humanized version of 103B2 with GLS in constant region) (antibody, human IgG4 S228P)
heavy: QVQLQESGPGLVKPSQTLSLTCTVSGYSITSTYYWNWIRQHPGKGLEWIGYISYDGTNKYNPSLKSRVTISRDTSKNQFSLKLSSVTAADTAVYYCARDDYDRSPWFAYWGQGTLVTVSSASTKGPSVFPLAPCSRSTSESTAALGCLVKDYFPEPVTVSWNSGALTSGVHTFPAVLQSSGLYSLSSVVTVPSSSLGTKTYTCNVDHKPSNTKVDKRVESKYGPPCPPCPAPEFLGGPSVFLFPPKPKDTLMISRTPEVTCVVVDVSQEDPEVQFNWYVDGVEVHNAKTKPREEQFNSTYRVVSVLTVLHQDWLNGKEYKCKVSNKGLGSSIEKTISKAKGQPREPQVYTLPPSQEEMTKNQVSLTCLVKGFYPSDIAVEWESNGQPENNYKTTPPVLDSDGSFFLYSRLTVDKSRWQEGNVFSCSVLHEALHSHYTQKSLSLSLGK
VL: DIQMTQSPSSLSASVGDRVTITCLASQTIGTWLAWYQQKPGKAPKLLIYAATSLADGVPSRFSGSGSGTDFTLTISSLQPEDFATYYCQQLYSTPWTFGGGTKLEIKR
notes: also called pZRCIII Hyg P15LC-P15HC (IgG4 GLS); copies: 2 + 2
On to B3, for which, in experiment [2], the Kd (commonly the free concentration of one partner at which half of the binding sites on the other are occupied at equilibrium, for simple one-to-one binding) is 66 nM; the koff turned out to be 0.0329 s⁻¹; the kon amounted to 502000 M⁻¹ s⁻¹. Moreover, in experiment [1], the Kd is 0.162 nM, the koff amounted to 0.000128 s⁻¹ and the kon was 792000 M⁻¹ s⁻¹.

B4: P15 (humanized version of 103B2) (antibody, human IgG4 S228P)
heavy: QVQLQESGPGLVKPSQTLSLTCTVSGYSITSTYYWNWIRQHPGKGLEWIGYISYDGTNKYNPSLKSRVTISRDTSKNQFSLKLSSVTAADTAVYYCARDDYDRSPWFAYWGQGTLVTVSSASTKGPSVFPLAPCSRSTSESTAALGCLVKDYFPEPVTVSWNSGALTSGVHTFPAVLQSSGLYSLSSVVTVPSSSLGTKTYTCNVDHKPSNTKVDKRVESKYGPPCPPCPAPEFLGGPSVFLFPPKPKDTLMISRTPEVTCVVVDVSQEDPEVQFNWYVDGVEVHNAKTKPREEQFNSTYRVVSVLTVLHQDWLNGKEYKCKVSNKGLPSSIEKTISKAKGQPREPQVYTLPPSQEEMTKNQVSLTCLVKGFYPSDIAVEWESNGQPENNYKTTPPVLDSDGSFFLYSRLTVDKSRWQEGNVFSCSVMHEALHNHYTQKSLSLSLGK
VL: B3 VL
notes: also called pZRCIII Hyg P15LC-P15HC; copies: 2 + 2
Take B4: in experiment [2], the Kd is 554 nM, the koff was 0.125 s⁻¹ and the on-rate constant (kon) came out at 227000 M⁻¹ s⁻¹. In experiment [1], the dissociation constant (Kd) was 0.154 nM, the koff was 0.000142 s⁻¹ and the kon stood at 925000 M⁻¹ s⁻¹.

B5: 103B2 (antibody, V domains shown)
VH: KPSQSLSLTCSVTGYSITSTYYWNWIRQFPGNKLEWMGYISYDGTNKYNPSLKNRISITRDTSKNRFFLKLNSVTTEDTATYYCAGDDYDRSPWFAYWGQGTLVTVSA
VL: DIVLTQSPASQSASLGESVTITCLASQTIGTWLAWYQQKPGKSPQLLIYAATSLADGVPSRFSGSGSGTKFSFKISSLQAEDFVSYYCQQLYSTPWTFGGGTKLEIKR
notes: Murine hybridoma antibody purified by Protein A; also called murine anti-properdin hybridoma mAb 103B2
Take B5: in experiment [3], the affinity, expressed as Kd, was 0.731 nM; the off-rate constant (koff) came out at 0.000509 s⁻¹; the kon stood at 696000 M⁻¹ s⁻¹.
